From patent publication US20260209334A1 (MAX PLANCK GESELLSCHAFT ZUR F RDERUNG DER WISSENSCHAFTEN E V, published 2026)

What was measured:
[1] = target: recombinant human IL-17A (produced in HEK cells, Proteintech HZ-1113) (human, UniProt Q16552 24-155); assay: cell-based or functional assay
[2] = target: T1, recombinant human IL-17F (produced in HEK cells, Proteintech HZ-1116) (human, UniProt Q96PD4 31-163); assay: cell-based or functional assay
T1 sequence (looked up): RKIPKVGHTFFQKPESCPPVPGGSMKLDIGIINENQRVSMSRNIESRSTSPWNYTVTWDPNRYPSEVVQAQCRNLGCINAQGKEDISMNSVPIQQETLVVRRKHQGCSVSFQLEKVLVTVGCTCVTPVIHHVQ

[3] = target: recombinant human IL-17A/F (produced in CHO cells, R&D Systems 5837-IL) (human, UniProt Q16552 24-155; Q96PD4 31-163, limits assumed); assay: cell-based or functional assay
[4] = target: T2, human IL-17F with C-terminal Avi-tag, biotinylated, immobilized on BLI sensors (human, UniProt Q96PD4 31-163, biotin on the C-terminal Avi-tag (BirA)); assay: BLI, biotinylated IL-17F immobilized, monovalent VHH as analyte
T2 construct: also called biotinylated IL-17F; not shown: C-terminal Avi-tag
T2 sequence: T1 sequence (looked up)

[5] = target: T3, human IL-17A with C-terminal Avi-tag, biotinylated, immobilized on BLI sensors (human, UniProt Q16552 24-155, biotin on the C-terminal Avi-tag (BirA)); assay: BLI, biotinylated IL-17A immobilized, monovalent VHH as analyte
T3 construct: also called biotinylated IL-17A; not shown: C-terminal Avi-tag

[6] = target: T1, recombinant human IL-17F (produced in …); assay: cell-based or functional assay; remark: listed apart in the source

Sequence of recombinant human IL-17A (produced in HEK cells, Proteintech HZ-1113) (Q16552 24-155 limits assumed): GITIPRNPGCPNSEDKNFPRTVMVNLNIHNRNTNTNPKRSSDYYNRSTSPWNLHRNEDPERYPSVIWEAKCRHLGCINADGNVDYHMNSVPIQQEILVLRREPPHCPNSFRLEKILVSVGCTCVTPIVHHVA
Sequence of recombinant human IL-17A/F (produced in CHO cells, R&D Systems 5837-IL) (Q16552 24-155 limits assumed, chain 1 of 2, one chain of several): as the sequence (Q16552 24-155 limits assumed) above
T3 sequence (Q16552 24-155): as the sequence (Q16552 24-155 limits assumed) above

B1: VHH664 (VHH)
VHH: EVQLVESGGGLVQAGGSLRLSCAASGRTYDAMGWLRQAPGKEREFVAAISGSGDDTYYADSVKGRFTISKDNAGITMYLQMNSLKPEDTAVYYCATRRGLYYVWDSNDYENWGQGTQVTVSS
notes: Control VHH of Ablynx, disclosed in WO2012156219
In the case of B1, the “Neutralization potency, ranking from 1 = the best to 4 (HEK-Blue IL-17 reporter cells)” value (“Neutralization potency, ranking” below) [1] is reported as 2 rank, the “Neutralization potency, ranking” value [2] is reported as 4 rank and the “Neutralization potency, ranking” value [3] is reported as 2 rank. The Kd [4] was 12 nM, the Kd [5] was 0.15 nM and the “IC50 (read off the curve), SEAP reporter, HEK-Blue IL-17 cells, 0.85 nM IL-17F” value [6] was ~0.06 µg/mL.
